First the molecules themselves.
T1: FcγRIIa R (FcγRIIa, allotype with Arg at position 131), extracellular domain with C-terminal His tag (human, UniProt P12318 34-217)
T1 construct: extracellular domain; also called FcγRIIa R type; 2aR
T1 sequence (looked up): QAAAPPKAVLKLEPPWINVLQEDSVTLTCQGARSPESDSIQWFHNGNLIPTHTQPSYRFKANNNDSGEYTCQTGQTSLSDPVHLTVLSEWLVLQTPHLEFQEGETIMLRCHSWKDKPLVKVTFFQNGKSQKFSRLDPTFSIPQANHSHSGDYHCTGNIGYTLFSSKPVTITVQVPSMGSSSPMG

B1: GpH7-A5/GpH7-B3 variant S337_02A/GpL16-k0 (antibody, human IgG1, kappa)
heavy 1: not shown
heavy 2: not shown
light: DIVMTQSPLSLPVTPGEPASISCQASESLVHSNRNTYLHWYLQKPGQSPQLLIYKVSNRFSGVPDRFSGSGSGTDFTLKISRVEAEDVGVYYCSQNTHVPPTFGQGTKVEIERTVAAPSVFIFPPSDEQLKSGTASVVCLLNNFYPREAKVQWKVDNALQSGNSQESVTEQDSKDSTYSLSSTLTLSKADYEKHKVYACEVTHQGLSSPVTKSFNRGEC
notes: also called He Ab
B2: GpH7-A5/GpH7-B3 variant S337_10E/GpL16-k0 (antibody, human IgG1, kappa)
heavy 1: not shown
heavy 2: not shown
light: B1 light
notes: also called He Ab
B3: GpH7-A5/GpH7-B3 variant P331_16H/GpL16-k0 (antibody, human IgG1, kappa)
heavy 1: not shown
heavy 2: not shown
light: B1 light
notes: also called He Ab
B4: GpH7-A5/GpH7-B3 variant S239_07I/GpL16-k0 (antibody, human IgG1, kappa)
heavy 1: not shown
heavy 2: not shown
light: B1 light
notes: also called He Ab
B5: GpH7-A5/GpH7-B3 variant S337_11K/GpL16-k0 (antibody, human IgG1, kappa)
heavy 1: not shown
heavy 2: not shown
light: B1 light
notes: also called He Ab
B6: GpH7-A5/GpH7-B3 variant S337_08L/GpL16-k0 (antibody, human IgG1, kappa)
heavy 1: not shown
heavy 2: not shown
light: B1 light
notes: also called He Ab
B7: GpH7-A5/GpH7-B3 variant S337_12R/GpL16-k0 (antibody, human IgG1, kappa)
heavy 1: not shown
heavy 2: not shown
light: B1 light
notes: also called He Ab
B8: GpH7-A5/GpH7-B3 variant P331_20W/GpL16-k0 (antibody, human IgG1, kappa)
heavy 1: not shown
heavy 2: not shown
light: B1 light
notes: also called He Ab
B9: GpH7-A5/GpH7-B3 variant S298_06M/GpL16-k0 (antibody, human IgG1, kappa)
heavy 1: not shown
heavy 2: not shown
light: B1 light
notes: also called He Ab
B10: GpH7-A5/GpH7-B3 variant P331_15Y/GpL16-k0 (antibody, human IgG1, kappa)
heavy 1: not shown
heavy 2: not shown
light: B1 light
notes: also called He Ab
B11: GpH7-A5/GpH7-B3 variant P331_13S/GpL16-k0 (antibody, human IgG1, kappa)
heavy 1: not shown
heavy 2: not shown
light: B1 light
notes: also called He Ab
B12: GpH7-A5/GpH7-B3 variant S239_14T/GpL16-k0 (antibody, human IgG1, kappa)
heavy 1: not shown
heavy 2: not shown
light: B1 light
notes: also called He Ab
B13: GpH7-A5/GpH7-B3 variant S337_06M/GpL16-k0 (antibody, human IgG1, kappa)
heavy 1: not shown
heavy 2: not shown
light: B1 light
notes: also called He Ab
B14: GpH7-A5/GpH7-B3 variant S239_18N/GpL16-k0 (antibody, human IgG1, kappa)
heavy 1: not shown
heavy 2: not shown
light: B1 light
notes: also called He Ab
B15: GpH7-A5/GpH7-B3 variant S324_04F/GpL16-k0 (antibody, human IgG1, kappa)
heavy 1: not shown
heavy 2: not shown
light: B1 light
notes: also called He Ab
B16: GpH7-A5/GpH7-B3 variant S337_04F/GpL16-k0 (antibody, human IgG1, kappa)
heavy 1: not shown
heavy 2: not shown
light: B1 light
notes: also called He Ab
B17: GpH7-A5/GpH7-B3 variant P331_18N/GpL16-k0 (antibody, human IgG1, kappa)
heavy 1: not shown
heavy 2: not shown
light: B1 light
notes: also called He Ab
B18: GpH7-A5/GpH7-B3 variant S298_08L/GpL16-k0 (antibody, human IgG1, kappa)
heavy 1: not shown
heavy 2: not shown
light: B1 light
notes: also called He Ab
B19: GpH7-A5/GpH7-B3 variant S239_06M/GpL16-k0 (antibody, human IgG1, kappa)
heavy 1: not shown
heavy 2: not shown
light: B1 light
notes: also called He Ab
B20: GpH7-A5/GpH7-B3 variant S267_19Q/GpL16-k0 (antibody, human IgG1, kappa)
heavy 1: not shown
heavy 2: not shown
light: B1 light
notes: also called He Ab
B21: GpH7-A5/GpH7-B3 variant P331_07I/GpL16-k0 (antibody, human IgG1, kappa)
heavy 1: not shown
heavy 2: not shown
light: B1 light
notes: also called He Ab
B22: GpH7-A5/GpH7-B3 variant S337_07I/GpL16-k0 (antibody, human IgG1, kappa)
heavy 1: not shown
heavy 2: not shown
light: B1 light
notes: also called He Ab
B23: GpH7-A5/GpH7-B3 variant P331_08L/GpL16-k0 (antibody, human IgG1, kappa)
heavy 1: not shown
heavy 2: not shown
light: B1 light
notes: also called He Ab
B24: GpH7-A5/GpH7-B3 variant S239_10E/GpL16-k0 (antibody, human IgG1, kappa)
heavy 1: not shown
heavy 2: not shown
light: B1 light
notes: also called He Ab
B25: GpH7-A5/GpH7-B3 variant P331_14T/GpL16-k0 (antibody, human IgG1, kappa)
heavy 1: not shown
heavy 2: not shown
light: B1 light
notes: also called He Ab
B26: GpH7-A5/GpH7-B3 variant Q295_10E/GpL16-k0 (antibody, human IgG1, kappa)
heavy 1: not shown
heavy 2: not shown
light: B1 light
notes: also called He Ab
B27: GpH7-A5/GpH7-B3 variant S267_09D/GpL16-k0 (antibody, human IgG1, kappa)
heavy 1: not shown
heavy 2: not shown
light: B1 light
notes: also called He Ab
B28: GpH7-A5/GpH7-B3 variant P331_10E/GpL16-k0 (antibody, human IgG1, kappa)
heavy 1: not shown
heavy 2: not shown
light: B1 light
notes: also called He Ab
B29: GpH7-A5/GpH7-B3 variant Q295_06M/GpL16-k0 (antibody, human IgG1, kappa)
heavy 1: not shown
heavy 2: not shown
light: B1 light
notes: also called He Ab
B30: GpH7-A5/GpH7-B3 variant P331_06M/GpL16-k0 (antibody, human IgG1, kappa)
heavy 1: not shown
heavy 2: not shown
light: B1 light
notes: also called He Ab
B31: GpH7-A5/GpH7-B3 variant S239_08L/GpL16-k0 (antibody, human IgG1, kappa)
heavy 1: not shown
heavy 2: not shown
light: B1 light
notes: also called He Ab
B32: GpH7-A5/GpH7-B3 variant P331_09D/GpL16-k0 (antibody, human IgG1, kappa)
heavy 1: not shown
heavy 2: not shown
light: B1 light
notes: also called He Ab
B33: GpH7-A5/GpH7-B3 variant S239_05P/GpL16-k0 (antibody, human IgG1, kappa)
heavy 1: not shown
heavy 2: not shown
light: B1 light
notes: also called He Ab
B34: GpH7-A5/GpH7-B3 variant S267_06M/GpL16-k0 (antibody, human IgG1, kappa)
heavy 1: not shown
heavy 2: not shown
light: B1 light
notes: also called He Ab
B35: GpH7-A5/GpH7-B3 variant S324_06M/GpL16-k0 (antibody, human IgG1, kappa)
heavy 1: not shown
heavy 2: not shown
light: B1 light
notes: also called He Ab
B36: GpH7-A5/GpH7-B3 variant S337_09D/GpL16-k0 (antibody, human IgG1, kappa)
heavy 1: not shown
heavy 2: not shown
light: B1 light
notes: also called He Ab
B37: GpH7-A5/GpH7-B3 variant S337_15Y/GpL16-k0 (antibody, human IgG1, kappa)
heavy 1: not shown
heavy 2: not shown
light: B1 light
notes: also called He Ab
B38: GpH7-A5/GpH7-B3 variant S337_03V/GpL16-k0 (antibody, human IgG1, kappa)
heavy 1: not shown
heavy 2: not shown
light: B1 light
notes: also called He Ab
B39: GpH7-A5/GpH7-B3 variant S267_03V/GpL16-k0 (antibody, human IgG1, kappa)
heavy 1: not shown
heavy 2: not shown
light: B1 light
notes: also called He Ab
B40: GpH7-A5/GpH7-B3 variant S337_16H/GpL16-k0 (antibody, human IgG1, kappa)
heavy 1: not shown
heavy 2: not shown
light: B1 light
notes: also called He Ab

The values that follow come from US20150344570A1 (published 2015).

The target in the test is T1, FcγRIIa R (FcγRIIa, allotype with Arg …). Nature of the test: SPR (Biacore), antibody captured on antigen peptide chip, FcγR as analyte; relative binding. The procedure: Analysis of interaction between objective antibody and the FcγR was carried out using Biacore T100 (GE Healthcare). HBS-EP+ (GE Healthcare) was used as the running buffer, and the measurement temperature was set to 25° C. Chips produced by immobilizing the antigen peptide by the amine coupling method to a Series S Sencor Chip CM5 (GE Healthcare), or alternatively, chips produced by allowing preliminarily biotinylated antigen peptides to interact with and immobilize onto a Series S Sensor Chip SA (certified) (GE Healthcare) were used. Antibodies of interest were captured onto an antigen peptide-immobilized chip, and allowed to interact to each FcγR diluted with running buffer. To regenerate and repeatedly use the chip, the antibodies captured on the chip were washed off by reacting 10 mM glycine-HCl, pH 1.5.
For B1, the He/Con_2aR was 105 % of GpH7-A5/GpH7-B3/GpL16-k0 (=100).

For the molecule B2, the He/Con_2aR is 112 % of GpH7-A5/GpH7-B3/GpL16-k0 (=100).

In the case of B3, the He/Con_2aR is 114 % of GpH7-A5/GpH7-B3/GpL16-k0 (=100).

In the case of B4, the He/Con_2aR was 102 % of GpH7-A5/GpH7-B3/GpL16-k0 (=100).

Turning to B5, the He/Con_2aR was 103 % of GpH7-A5/GpH7-B3/GpL16-k0 (=100).

As for B6, the He/Con_2aR is 107 % of GpH7-A5/GpH7-B3/GpL16-k0 (=100).

As to B7, the He/Con_2aR is 107 % of GpH7-A5/GpH7-B3/GpL16-k0 (=100).

In the case of B8, the He/Con_2aR was 110 % of GpH7-A5/GpH7-B3/GpL16-k0 (=100).

Consider B9, for which the He/Con_2aR was 108 % of GpH7-A5/GpH7-B3/GpL16-k0 (=100).

With B10, the He/Con_2aR is 112 % of GpH7-A5/GpH7-B3/GpL16-k0 (=100).

Take B11: the He/Con_2aR was 105 % of GpH7-A5/GpH7-B3/GpL16-k0 (=100).

Turning to B12, the He/Con_2aR is 103 % of GpH7-A5/GpH7-B3/GpL16-k0 (=100).

B13: the He/Con_2aR was 105 % of GpH7-A5/GpH7-B3/GpL16-k0 (=100).

As for B14, the He/Con_2aR is 111 % of GpH7-A5/GpH7-B3/GpL16-k0 (=100).

In the case of B15, the He/Con_2aR was 104 % of GpH7-A5/GpH7-B3/GpL16-k0 (=100).

In the case of B16, the He/Con_2aR was 105 % of GpH7-A5/GpH7-B3/GpL16-k0 (=100).

Turning to B17, the He/Con_2aR was 105 % of GpH7-A5/GpH7-B3/GpL16-k0 (=100).

For B18, the He/Con_2aR was 105 % of GpH7-A5/GpH7-B3/GpL16-k0 (=100).

Regarding B19, the He/Con_2aR was 101 % of GpH7-A5/GpH7-B3/GpL16-k0 (=100).

With B20, the He/Con_2aR is 135 % of GpH7-A5/GpH7-B3/GpL16-k0 (=100).

Consider B21, for which the He/Con_2aR was 110 % of GpH7-A5/GpH7-B3/GpL16-k0 (=100).

Consider B22, for which the He/Con_2aR is 109 % of GpH7-A5/GpH7-B3/GpL16-k0 (=100).

Consider B23, for which the He/Con_2aR was 102 % of GpH7-A5/GpH7-B3/GpL16-k0 (=100).

B24: the He/Con_2aR is 135 % of GpH7-A5/GpH7-B3/GpL16-k0 (=100).

In the case of B25, the He/Con_2aR was 104 % of GpH7-A5/GpH7-B3/GpL16-k0 (=100).

Turning to B26, the He/Con_2aR is 102 % of GpH7-A5/GpH7-B3/GpL16-k0 (=100).

With B27, the He/Con_2aR was 173 % of GpH7-A5/GpH7-B3/GpL16-k0 (=100).

As to B28, the He/Con_2aR is 113 % of GpH7-A5/GpH7-B3/GpL16-k0 (=100).

Turning to B29, the He/Con_2aR is 102 % of GpH7-A5/GpH7-B3/GpL16-k0 (=100).

Take B30: the He/Con_2aR is 106 % of GpH7-A5/GpH7-B3/GpL16-k0 (=100).

With B31, the He/Con_2aR is 122 % of GpH7-A5/GpH7-B3/GpL16-k0 (=100).

Take B32: the He/Con_2aR is 102 % of GpH7-A5/GpH7-B3/GpL16-k0 (=100).

Consider B33, for which the He/Con_2aR is 106 % of GpH7-A5/GpH7-B3/GpL16-k0 (=100).

Turning to B34, the He/Con_2aR was 122 % of GpH7-A5/GpH7-B3/GpL16-k0 (=100).

Turning to B35, the He/Con_2aR was 123 % of GpH7-A5/GpH7-B3/GpL16-k0 (=100).

In the case of B36, the He/Con_2aR was 115 % of GpH7-A5/GpH7-B3/GpL16-k0 (=100).

Turning to B37, the He/Con_2aR was 105 % of GpH7-A5/GpH7-B3/GpL16-k0 (=100).

Turning to B38, the He/Con_2aR was 106 % of GpH7-A5/GpH7-B3/GpL16-k0 (=100).

Regarding B39, the He/Con_2aR was 116 % of GpH7-A5/GpH7-B3/GpL16-k0 (=100).

For the molecule B40, the He/Con_2aR was 109 % of GpH7-A5/GpH7-B3/GpL16-k0 (=100).
